According to paper PMC5460842:

Biological target: FLAG-EGFR incorporated into nanolipoprotein particles (EGFR-NLP) (not stated ("mammalian")) (UniProt P00533)
Assay: BLI; competition with biotinylated EGF on sensor, 100 nM EGFR-NLP; given as EC50

- IC50: 5.87 nM
Substance: cetuximab
